The record followed here is paper PMC8125140.

Assay [1] concerns the target γ2-GABAA subunit fused with a superecliptic pHluorin (SEP) tag (UniProt P18508).
For assay [2] the target is unchanged. The source holds these as a separate data set.
For assay [3] the target is unchanged. This is another data set of the same source.
Assay [4] deals with γ2-GABAA receptor (endogenous) (rat (endogenous in hippocampal neurons)) (UniProt P18508).

As to “dopamine D5 receptor (endogenous) (from UniProt P25115 1-475)”, in assay [1], the diffusion coefficient median of SEP-γ2-GABAARs at inhibitory synaptic sites with the disrupting peptide TATD5Ct (10 µM); control 1.81 10^−2 µm^2/s is 0.0578 µm^2/s; the explored area of SEP-γ2-GABAARs at inhibitory synapses with the disrupting peptide TATD5Ct (10 µM); control 0.30 10^−2 was 0.0133 µm^2/s; the immobile fraction (D < 0.005 µm^2/s) of SEP-γ2-GABAARs at inhibitory synapses, single nanoparticle tracking, after the disrupting peptide TATD5Ct (10 µM, 10 min); control 33% is 9%. Also, in assay [2], the diffusion coefficient median of SEP-γ2-GABAARs at excitatory synapses with the disrupting peptide TATD5Ct (10 µM); control 3.15 10^−2 µm^2/s; no change (p = 0.13) came to 0.0412 µm^2/s, the explored area of SEP-γ2-GABAARs at excitatory synapses with the disrupting peptide TATD5Ct (10 µM); control 0.60 10^−2 µm^2; unchanged (p = 0.097) turned out to be 0.0073 µm^2 and the immobile fraction of SEP-γ2-GABAARs at excitatory synapses with the disrupting peptide TATD5Ct (10 µM); no change came to 20%. In assay [3], this substance gave a diffusion coefficient median of extrasynaptic SEP-γ2-GABAARs after incubation with the disrupting peptide TATD5Ct (10 µM); control 4.11 10^−2 µm^2/s of 0.075 µm^2/s, an explored area of extrasynaptic SEP-γ2-GABAARs with the disrupting peptide TATD5Ct (10 µM); control 1.24 10^−2 µm^2 of 0.0245 µm^2 and an immobile fraction of extrasynaptic SEP-γ2-GABAARs with the disrupting peptide TATD5Ct (10 µM); control 25% of 17%.
In assay [4], “dopamine D5 receptor fused to the yellow fluorescent protein (YFP) (from UniProt P25115 1-475)” returned a diffusion coefficient median of extrasynaptic D5Rs (D5R–YFP) after incubation with the disrupting peptide TATD5Ct (10 µM); control 7.42 10^−2 µm^2/s of 0.103 µm^2/s; an explored area of extrasynaptic D5Rs (D5R–YFP) with the disrupting peptide TATD5Ct (10 µM); control 2.37 10^−2 µm^2 of 0.0345 µm^2; an immobile fraction of extrasynaptic D5Rs (D5R–YFP, single nanoparticle tracking) with the disrupting peptide TATD5Ct (10 µM); not changed of 15%.
